Target: the molecule itself
Assay: cryo-EM structure; Slo1 tetramers in lipid nanodiscs (MSP1E3D1); two samples: Low-Barium (~1.4 mM Ba2+, PDB 7RK6) and High-Barium (10 mM Ba2+ throughout purification, PDB 7RJT); Titan Krios, K2 detector

B1: Aplysia californica Slo1 BK channel (natural protein)
chain: not shown
notes: Homotetramer in lipid nanodiscs (scaffold MSP1E3D1); also called Aplysia Slo1; Aplysia BK channel; not shown: GFP, C-terminal, cleaved; rho-1D4, C-terminal, cleaved
stoichiometry N: 4
